In assay [1] the target is T1, hemagglutinin (HA) of A/Puerto Rico/8/1934 (PR8, H1N1) (Influenza A virus A/Puerto Rico/8/1934 …, UniProt P03452 18-565). Nature of the assay: cell-based or functional assay.
Assay [2] concerns the target T1, hemagglutinin (HA) of A/Puerto …. Nature of the assay: cell-based or functional assay. This is another data set of the same source.
In assay [3] the target is synthetic peptide #34 […] (Influenza A virus A/Puerto Rico/8/1934 …). Nature of the assay: peptide ELISA, peptide coated at 10 µg/ml, mAb at 1 µg/ml. A general note: An ELISA detects its analyte on a solid surface through an enzyme-linked reagent.
Assay [4] deals with synthetic peptide #39 […] (Influenza A virus A/Puerto Rico/8/1934 …). Described as above.

Numbering of substitutions follows the chain as printed.

B1: 39-3F2-2A6 (mAb-2A6) (antibody, V domains shown)
VH: DVKLVESGGGLVKPGGSLKLSCAASGFTFSSYTMSWVRQTPEKRLEWVATISSGGIYTYYPDSVKGRFTISRDNAKNTLYLQMNSLKSEDTAMYYCVRSTSYYFDYWGQGTTLTVSS
VL: DIVMTQSPSSLTVTAGEKVTMSCKSSQSLLSDGSQKNYLTWCQQKPGQPPKLLIYWASTRESGVPDRFTGSGSGTDFTLTISSVQAEDLGVYYCQNDHSYPLTFGAGTKLELK
notes: also called HANA 39-3F2-2A6; sample 22b
Regarding B1, in assay [1], the “concentration for complete neutralization of PR8, plaque inhibition assay” value (shortened to “concentration … plaque inhibition assay”) came out at 0.1 µg/mL and the “in ovo neutralization, concentration for complete blocking of PR8 growth” value (“in ovo neutralization, concentration” for short) was found to be 16 µg/mL. Besides, the “HI Titer to PR8” value in assay [2] was 80 reciprocal dilution. Further, in assay [3], the binding result is recorded as “binds”.

B2: 56-2G9-1B3 (mAb-1B3) (antibody, V domains shown)
VH: EVQLVESGGGLVKPGGSLKLSCAASGFIFSSYVMSWVRQTPEKRLEWVATISSGGTNTYYPDSVKGRFTISRDNAKNTLYLQMSSLRSEDTAIYYCVRSYRYYFDYWGQGTTLTVSS
VL: B1 VL with S31N, D32S, C42F, P49S, T59S, G90A, H98S, S99N
Consider B2, for which, in assay [1], the “concentration … plaque inhibition assay” value was found to be 0.1 µg/mL and the “in ovo neutralization, concentration” value came to 8 µg/mL. In addition, in assay [2], the “HI Titer to PR8” value came out at 40 reciprocal dilution.

B3: 39-4D12-2D11 (mAb-2D11) (antibody, V domains shown)
VH: B1 VH with L18P, I56S, V64L, N84S, M93I, Y95H
VL: B1 VL with S22N, S82D, V91I
notes: also called HANA 39-4D12-2D11; sample 28b
Regarding B3, in assay [1], the “concentration … plaque inhibition assay” value was determined as 0.1 µg/mL and the “in ovo neutralization, concentration” value was found to be 4 µg/mL. Besides, the “HI Titer to PR8” value in assay [2] was 20 reciprocal dilution. Moreover, the binding result in assay [4] is given as “binds”.

The values above are taken from patent US20160289304A1 (VIRO DYNAMICS, published 2016).
